Reference: patent US20180282429A1 (Zymeworks, published 2018)

Key:
[1] = molecular target: T1, recombinant human HER2 (human, UniProt P04626 23-652); assay: SPR by the protocol of Example 12, sample before SEC, against v10013
T1 construct: extracellular domain
Description: (§1) Between 2000 and 4000 RU of anti-human Fc injected at concentration between 5 and 10 μg/ml was immobilized on a CM5 chip using standard amine coupling. […] HER2 dilutions were analyzed in duplicate. Sensograms were fit globally to a 1:1 Langmuir binding model. All experiments were conducted at 25° C.
(§2) The SPR was measured before and after SEC purification.

[2] = molecular target: T1, recombinant human HER2; assay: SPR by the protocol of Example 12, sample after SEC, against v10013
Description: as §1, §2

Fold wrt WT (KD(WT)/KD(mut)) [1]: 8.1 fold
Fold wrt WT (KD(WT)/KD(mut)) [2]: 7 fold
B1: Variant 10014 (antibody, human IgG1, kappa)
heavy: EVQLVESGGGLVQPGGSLRLSCAASGFTFADYTMDWVRQAPGKGLEWVADVNPNSGGSIYNQRFKGRFTLSVDRSKNTLYLQMNSLRAEDTAVYYCARNLGPSFYFDYWGQGTLVTVSSASTKGPSVFPLAPSSKSTSGGTAALGCLVKDYFPEPVTVSWNSGALTSGVHTFPAVLQSSGLYSLSSVVTVPSSSLGTQTYICNVNHKPSNTKVDKKVEPKSCDKTHTCPPCPAPELLGGPSVFLFPPKPKDTLMISRTPEVTCVVVDVSHEDPEVKFNWYVDGVEVHNAKTKPREEQYNSTYRVVSVLTVLHQDWLNGKEYKCKVSNKALPAPIEKTISKAKGQPREPQVYVYPPSRDELTKNQVSLTCLVKGFYPSDIAVEWESNGQPENNYKTTPPVLDSDGSFALVSKLTVDKSRWQQGNVFSCSVMHEALHNHYTQKSLSLSPG
light: not shown
Fc: not shown
notes: also called v10014
